The target of data set [1] is T1, LDH-Htr (Homo sapiens, UniProt P07195).
T1 construct: using the model of dimeric LDH (LDH-Htr); made in house; host or cells: E. coli Rosetta (DE3)
The data set is described as follows: Microscale thermophoresis (MST) binding to labelled LDH-Htr. As to conditions: 1.5 s MST on time, n=3, labelled LDH-Htr 100 nM. The procedure:
MST measurements were performed on a Nanotemper® Monolith NT.115 instrument (NanoTemper Technologies®) using Red-dye-NHS fluorescent labelling. LDH-Htr purified to homogeneity was labelled with the Monolith Red-dye-NHS 2nd generation labelling dye (Nanotemper Technologies®), according to the supplied protocol. Measurements were performed in 50 mM sodium phosphate, pH 7.6, and 100 mM NaCl containing 0.01% Tween-20 in standard-treated capillaries (NanoTemper Technologies®). The final concentration of proteins in the assay was 100 nM. Ligands were titrated in 1:1 dilutions following manufacturer's recommendations. Experiments were performed in triplicates using 40% LED power, high MST power, […] and Laser off time 3 s. Poypeptides were evaluated for their thermophoretic pattern, and Kd's were extracted from raw data at a 1.5 s MST on time following the manufacturer's instructions.

Data set [2] concerns the target T2, dimeric LDH-Htr (Homo sapiens, UniProt P07195).
T2 construct: using the model of dimeric LDH (LDH-Htr); made in house; host or cells: E. coli Rosetta (DE3)
The data set is described as follows: NanoDSF thermal shift of dimeric LDH-Htr with peptide. It counts as binding. As to conditions: LDH-Htr 15 μM, polypeptide 500 μM, n=3. The procedure: (§1) NanoDSF was performed following previously described by Thabault et al. (see above). • a) Variant evaluation Solutions of proteins (LDH-1, LDH-5 or LDH-Htr) with peptides were evaluated on a Tycho NT.6 device (NanoTemper Technologies®). Evaluations were performed in a 50 mM sodium phosphate and 100 mM NaCl pH 7.6 buffer. According to standard manufacturer's procedures, samples were poured into capillaries and treated as above.
In general terms: DSF heats the sample and reads unfolding from a dye or from intrinsic fluorescence.

In data set [3] the target is tetrameric LDH-5 (Homo sapiens, UniProt P00338). The data set is described as follows: NanoDSF thermal destabilization of tetrameric LDH-5 by peptide. Format: binding. The protocol:
as §1

Data set [4] addresses T2, dimeric LDH-Htr. The data set is described as follows: NMR WaterLOGSY with dimeric LDH-Htr. The settings on record: LDH-Htr 15 μM, LP-22 400 μM. Format: binding. The procedure: Human LDH-H (full length and truncated)-6His proteins for ^1D NMR were expressed and purified from E. coli, as described above. All experiments were performed on an […] system equipped with a broadband cryoprobe (Bruker®) following a previously described in Thabault et al. (see above).
For WaterLOGSY NMR studies, samples were prepared in 10% D2O containing 50 mM sodium phosphate buffer, pH 7.6, and 100 mM NaCl. The concentration of LDHs was ranging from 15 to 20 μM of monomer. Ligand binding was detected using a WaterLOGSY ephogsygpno.2 avance-version sequence with a 1 s mixing time. Water signal suppression was achieved using an excitation-sculpting scheme, and a 50 ms spinlock was used to suppress protein background signals.

Data set [5] can be described thus: Chemical denaturation with guanidinium-HCl followed by intrinsic fluorescence. It counts as physicochemical, human. The settings on record: protein 1.3 μM, means ± SEM, n=6. The procedure: (§2) All spectrophotometric experiments were performed with opaque 96-well plates using a Spectramax m2e spectrophotometer (Molecular Devices) following previously described in Thabault et al. (see above).
(§3) Intrinsic fluorescence assays: full tryptophan fluorescence spectra were recorded using an excitation wavelength of 286 nm and recording the emission spectra from 320 to 400 nm at room temperature. The raw fluorescence of each experiment was subtracted to a corresponding control experiment without the protein. Experiments were performed in a 50 mM sodium phosphate and 100 mM NaCl, pH 7.6, buffer. For dissociation in subunits, increasing amounts of guanidinium-HCl ranging from 0.3 M to 2 M were put in contact with the studied proteins (1.3 μM), and fluorescence spectra were recorded afterwards.

Data set [6] in a line: NanoDSF thermal denaturation of LDH-H variants. It counts as physicochemical, human. As to conditions: for Ratio 350/330 nm (initial): nanoDSF fluorescence ratio; for Tm: means ± SEM, n=6. The protocol:
NanoDSF was performed following previously described by Thabault et al. (see above). • a) Variant evaluation
Solutions of proteins (LDH-H, LDH-Htr, or variants), stored in a 50 mM sodium phosphate, 100 mM NaCl and 20% glycerol, pH 7.6, were evaluated on a Tycho NT.6 device (NanoTemper Technologies®) using concentrations […]. According to standard manufacturer's procedures, samples were poured into capillaries and heated up to 95° C. in 3 min, while following fluorescence emission at 330 and 350 nm. Melting temperatures were extracted from the derivative of the 350/330 nm fluorescence ratios upon increasing temperature. • b) Peptide evaluation

The nature of data set [7]: Intrinsic tryptophan fluorescence spectra. Format: physicochemical, human. As to conditions: 1.3 μM, λexc 286 nm, n=6. The procedure: as §2, §3

T2 sequence (P07195 21-334): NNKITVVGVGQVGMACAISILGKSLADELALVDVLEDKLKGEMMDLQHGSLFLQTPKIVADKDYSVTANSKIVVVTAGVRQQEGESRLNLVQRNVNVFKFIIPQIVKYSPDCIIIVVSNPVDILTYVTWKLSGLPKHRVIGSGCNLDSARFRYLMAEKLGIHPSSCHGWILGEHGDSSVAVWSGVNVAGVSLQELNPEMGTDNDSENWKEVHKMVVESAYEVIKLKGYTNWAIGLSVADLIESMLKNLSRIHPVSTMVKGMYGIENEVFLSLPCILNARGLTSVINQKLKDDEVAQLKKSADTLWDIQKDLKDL
T1 sequence (P07195 21-334): as above

As for `CSCC[C@H](NC(=O)[C@H](CCC(=O)O)NC(=O)CNC(=O)[C@H](CCCCN)NC(=O)[C@H](CC(C)C)NC(=O)[C@H](CCCCN)NC(=O)[C@H](CC(=O)O)NC(=O)[C@H](CCC(=O)O)NC(=O)[C@@H](N)CC(C)C)C(=O)N[C@@H](CCSC)C(=O)N[C@@H](CC(=O)O)C(=O)N[C@@H](CC(C)C)C(=O)N[C@@H](CCC(N)=O)C(=O)N[C@@H](Cc1c[nH]cn1)C(=O)NCC(=O)N[C@@H](CO)C(=O)N[C@@H](CC(C)C)C(=O)N[C@@H](Cc1ccccc1)C(=O)N[C@@H](CC(C)C)C(=O)N[C@@H](CCC(N)=O)C(=O)N[C@H](C(=O)N1CCC[C@H]1C(N)=O)[C@@H](C)O` [LP-22], the affinity in data set [1], expressed as Kd, was 156 µM. The “ΔTm of dimeric LDH-Htr (stabilization)” value in data set [2] turned out to be 2.8 °C. For the same compound, the “Destabilizing effect on LDH-5 compared to LDH-1” value in data set [3] (nanoDSF, tetrameric LDH-5 vs LDH-1) is “higher destabilizing effect”. The “WaterLOGSY saturation transfer with dimeric LDH-Htr” value in data set [4] was “undergoes a saturation transfer”.

Regarding “E62A: LDH-H recombinant alanine variant E62A of SEQ ID NO: 2”, the 50% effective concentration (EC50) (commonly the concentration that produces a half-maximal response) in data set [5] was < 100000 µM. Further, in data set [6], the NanoDSF denaturation pattern entry is listed as “denaturation patterns comparable to dimeric LDH-Htr” and the “Ratio 350/330 nm (initial)” value worked out at 0.95. For the same compound, in data set [6] (nanoDSF), the Tm (commonly the temperature at which the thermal transition is half complete) was found to be 58.9 ± 0.1 °C. Further, the “Tryptophan fluorescence intensity compared with LDH-1” value in data set [7] is given as “decays in fluorescence intensity characteristic of the dimeric forms of LDHs”.

As to “LDH-Htr: dimeric model of LDH-H obtained by truncating its N-terminal tetramerization domain [reference compound]”, the concentration for a half-maximal effect (EC50) in data set [5] was < 100000 µM. Besides, in data set [6], the NanoDSF denaturation pattern result is “concentration-dependent destabilization” and the “Ratio 350/330 nm (initial)” value stood at 0.87. The Tm in data set [6] (nanoDSF) came out at 57.5 ± 0.1 °C.

For the compound Ac-GEMMDLQHGSLFLQTP-NH2 [GP-16], the dissociation constant Kd (commonly the equilibrium constant for the complex coming apart) in data set [1] was 240 µM. Also, the half-maximal effective concentration (EC50) in data set [3] (LDH-5 300 nM, n=3, read-out: EC50 of ΔTm (destabilization) of tetrameric LDH-5) is 262 µM.

With “L71A: LDH-H recombinant alanine variant L71A of SEQ ID NO: 2”, in data set [5], the EC50 is < 100000 µM. Also, in data set [6], the NanoDSF denaturation pattern result is “a lower initial ratio and a red-shift”; the “Ratio 350/330 nm (initial)” value is given as 0.90. Also, in data set [6] (nanoDSF), the “Tm difference versus LDH-Htr” value amounted to 10 °C and the Tm is 67.1 ± 0.1 °C. The “Tryptophan fluorescence intensity compared with LDH-1” value in data set [7] was “not L71A”.

Regarding “F72A: LDH-H recombinant alanine variant F72A of SEQ ID NO: 2”, in data set [5], the 50% effective concentration (EC50) is < 100000 µM. Besides, in data set [6], the NanoDSF denaturation pattern entry is on record as “denaturation patterns comparable to dimeric LDH-Htr” and the “Ratio 350/330 nm (initial)” value is reported as 0.94. Further, the midpoint of thermal melting (Tm) in data set [6] (nanoDSF) turned out to be 53.9 ± 0.1 °C. Further, the “Tryptophan fluorescence intensity compared with LDH-1” value in data set [7] is listed as “decays in fluorescence intensity characteristic of the dimeric forms of LDHs”.
